Measurements taken from patent US8624010 (Amgen, dated 2014).

B2: murine B7RP1 (B7 related protein-1), membrane-bound (ligand)
chain: ETEVGAMVGSNVVLSCIDPHRRHFNLSGLYVYWQIENPEVSVTYYLPYKSPGINVDSSYKNRGHLSLDSMKQGNFSLYLKNVTPQDTQEFTCRVFMNTATELVKILEEVVRLRVAANFSTPVISTSDSSNPGQERTYTCMSKNGYPEPNLYWINTTDNSLIDTALQNNTVYLNKLGLYDVISTLRLPWTSRGDVLCCVENVALHQNITSISQAESFTGNNTKNPQETHNNELKVLVPVLAVLAAAAFVSFIIYRRTRPHRSYTGPKTVQLELTDHA
notes: also called mB7RP1; ligand for CRP1
B3: B7.2 (ligand)
chain: VSVETQAYFNGTAYLPCPFTKAQNISLSELVVFWQDQQKLVLYEHYLGTEKLDSVNAKYLGRTSFDRNNWTLRLHNVQIKDMGSYDCFIQKKPPTGSIILQQTLTELSVIANFSEPEIKLAQNVTGNSGINLTCTSKQGHPKPKKMYFLITNSTNEYGDNMQISQDNVTELFSISNSLSLSFPDGVWHMTVVCVLETESMKISSKPLNFTQEFPSPQTYWK
notes: also called CD86; B7.2-Fc; not shown: The Fc part (detected with anti-human Fc) and any linker

Columns and labels:
B7.2 = biological target: B3; test: ACAS cell surface display assay, Fc fusion protein on transfected cells, FITC anti-human Fc detection
Experimental: (§1) Figure 5: FIG. 5. Interaction of CRP1-Fc and B7RP1-Fc fusion proteins with membrane-bound proteins expressed in COS-7 cells. COS-7 cells transiently transfected with pcDNA3/CRP1, pcDNA3/B7RP1, or pcDNA3 vector alone. CHO D-cells were transfected with psDRα/hCD28 and stably expressed human CD28 (hCD28). Cells expressing membrane-bound CRP1, B7RP1, or hCD28, are represented in rows as indicated at the left side of the panel. Fc fusion proteins were incubated with the plate-bound cells in columns as indicated at the top of the panel. After incubation, cells were washed, and bound Fc fusion proteins were detected using an anti-human Fc antibody and ACAS (Adherent Cell Analysis and Sorting; ACAS Ultima, Meridian Instruments, Inc., Okemos, Mich.) analysis. Figure 6A: FIG. 6. FACS (Fluorescence-Activated Cell Sorter) analysis of expression of the receptor for B7RP1 (putatively, CRP1) on activated CD4+ and CD8+ T-cells. Mouse splenocytes were activated with PMA and ionomycin for 12 hours. B7RP1-Fc fusion protein, control Fc protein (Mock-Fc), or PBS (no stain), were incubated with the cells, washed, and subsequently incubated with goat-anti-human Fc-FITC conjugated antibody(GaHuFc-FITC) as indicated at the bottom of each panel. […]

[1] = biological target: T1, murine B7RP1-Fc fusion protein (murine; human, UniProt P01857-1 96-330 = IgG part); test: flow cytometry on PMA/ionomycin-activated mouse splenocytes, lymphocyte gate; detection with goat anti-human Fc-FITC; no PE stain; receptor on the cells is putatively CRP1
T1 construct: domain: carboxy terminal 235 amino acids of the human Fc gene (isotype IgG1); Made in 293T cells and purified on Protein A. The construct encodes residues 1-269; also called mB7RP1-Fc; muB7RP1-Fc
Experimental: The B7RP1-Fc fusion protein was utilized to detect cells that expressed receptors to B7RP1, presumably including the CRP1 protein (see Example 6), by FACS analysis. Spleens were removed from female C57/Black 6 mice, ground on 100 micron mesh filters to release the lymphocytes, passed through 70 micron filters, and then washed in 50 ml of RPMI-1640. They were pelleted at 1500 rpm, resuspended in fresh RPMI, mixed to break up the clumping cells, and passed through a 40 micron filter. T-cells to be activated were seeded into 6 well plates in RPMI-1640, 5% FBS, 1×PSG, PMA, ionomycin, and incubated at 37° C., 5% CO2 overnight. T-cell activation was checked by visual confirmation after 12 hr.
(§2) Activated spleen cells for immunostaining were washed in PBS, 0.5% BSA (Path-ocyte 4, ICN Pharmaceuticals) wash buffer, resuspended, and then aliquoted in 100 µl volumes. 15 µg/ml of either the CRP1-Fc fusion protein or the B7RP1-Fc fusion protein was added (1.5 µg/sample) as appropriate, and then the mixtures were incubated on ice for 30 min with occasional mixing. The cells were washed twice in 5.0 ml of wash buffer. Binding of the fusion proteins was visualized with 2 µg of goat-anti-human (GaHuFc-FITC) conjugated secondary antibody in a 100 µl volume for cell staining. […]

[2] = biological target: T2, murine CRP1-Fc fusion protein (murine; human, UniProt P01857-1 96-330 = IgG part); test: flow cytometry on non-activated mouse splenocytes, double stain with CD45R-PE; detection with goat anti-human Fc-FITC; ligand on the cells is presumably B7RP1
T2 construct: domain: carboxy terminal 235 amino acids of the human Fc gene (isotype IgG1); Made in 293T cells and purified on Protein A. The construct encodes residues 1-147; also called mCRP1-Fc
Experimental: PE conjugated cell marker antibody to CD45R (CD45R is a B-cell marker) or isotype control antibody (rat isotype), or PBS (no stain), were added as indicated at the left side of each individual panel.
as §2, with “staining. Cell marker antibodies conjugated with PE were added with the GaHUFc-FITC, as well as control isotype-PE conjugated antibody controls where indicated (rat isotype).” for “staining.”
The CRP1-Fc fusion protein was utilized to detect cells that expressed ligands to CRP1, presumably including the B7RP1 protein (see Example 8), by FACS analysis (FIG. 7). Splenocytes were prepared as in Example 8, except the 12 hr T-cell activation step was omitted and the cells were directly analyzed. […] Cells were detected that expressed both the CD45R B-cell marker and the putative ligands for CRP1, presumably including B7RP1 (Example 8).

[3] = biological target: B2; test: ACAS cell surface display assay, Fc fusion protein on transfected cells, FITC anti-human Fc detection
Experimental: as §1

B1: murine CRP1 (CD28 related protein-1), membrane-bound (receptor)
chain: EINGSADHRMFSFHNGGVQISCKYPETVQQLKMRLFREREVLCELTKTKGSGNAVSIKNPMLCLYHLSNNSVSFFLNNPDSSQGSYYFCSLSIFDPPPFQERNLSGGYLHIYESQLCCQLKLWLPVGCAAFVVVLLFGCILIIWFSKKKYGSSVHDPNSEYMFMAAVNTNKKSRLAGVTS
notes: also called mCRP1; receptor for B7RP1
B1: no binding (B7.2); binds [1].

B2: binds [2].

B3: no binding [3].
